Measurements reported in publication PMC10350915, “Development of a New Class of CXCR4-Targeting Radioligands Based on the Endogenous Antagonist EPI-X4 for Oncological Applications” (Journal of Medicinal Chemistry, 2023).
Square brackets hold non-standard residues; d marks the D form. Side chains are listed from the residue outwards. Ends that are not written are not given here. Peptide text beside a SMILES is read from it. * marks the point of attachment. DOTA = O=C(O)CN1CCN(CC(=O)O)CCN(CC(=O)*)CCN(CC(=O)O)CC1; dTyr(3-I) = N[C@H](Cc1ccc(O)c(I)c1)C(=O)O; 2Nal = N[C@@H](Cc1ccc2ccccc2c1)C(=O)O; Palmitoyl = CCCCCCCCCCCCCCCC(=O)*; dNMeOrn = CN[C@H](CCCN)C(=O)O; 4Amb = NCc1ccc(C(=O)O)cc1

Experiments:
[1] = cited from earlier work
[2] = in vivo; cited from earlier work
[3] = format: physicochemical; conditions: pH 7.4
Description: In a prelubricated eppendorf tube, a presaturated mixture of 500 μL of octanol and 500 μL of phosphate-buffered saline (PBS) were added. 1 pmol of the ^177Lu-labeled ligand was pipetted into this mixture, vortexed for 30 min, and then centrifuged at 3000 rpm for 10 min to achieve phase separation. Aliquots of 100 μL were removed from the octanol and from the PBS phase and the activity measured in a γ-counter. The distribution coefficient was calculated as the average log ratio value of the radioactivity in the organic fraction and PBS fraction.

[4] = format: in vitro ADME, human
Description: Representative radiochromatograms are provided in Figure S25 for ^177Lu-1, ^177Lu-2, and ^177Lu-7. This included ^177Lu-9 despite its fatty acid chain.
(§1) Figure 3 Stability of the ^177Lu ligands in human plasma at 37 °C, expressed as % of intact radioligand over time, assessed by radio-HPLC. The % of plasma protein binding (PPB) after 60 min incubation is provided in parenthesis and it is expressed as the % of radioligand in the protein fraction (pellet) versus the total activity in the plasma. TEXT PRINTED IN THE PICTURE: ^177Lu-1: PPB: 35% | ^177Lu-2: PPB: 22% | ^177Lu-5: PPB: 42% | ^177Lu-6: PPB: 38% | ^177Lu-7: PPB: 39% | ^177Lu-9: PPB: 37%
To 1 mL of fresh human plasma, previously equilibrated at 37 °C, 500 pmol (8–10 MBq) of each ^177Lu-labeled ligand was added. The mixture was incubated at 37 °C for different time points (0, 15, 30, 60, and 120 min). At each time point, a 100 μL aliquot was removed and treated with 1.5 excess (v/v) of acetonitrile, to precipitate plasma proteins, followed by centrifugation for 5 min at 3500 rpm. The supernatant was collected and the process of protein precipitation was repeated. Afterward, 100 μL from the supernatant was taken, diluted with water at a ratio of 1:10 (v/v), and injected into radio-HPLC. The radioligand (in)stability was assessed by quantifying the percentage of intact radioligand over time.

[5] = format: in vitro ADME; conditions: human, plasma, plasma protein binding (PPB)
Description: as §1
For the determination of plasma protein binding (PPB), 100 μL from the plasma incubated with the ^177Lu ligand was removed and measured in a γ-counter (total radioactivity). Protein precipitation and separation followed, as described above. The supernatant and the protein pellet were then measured in a γ-counter. The percentage of plasma protein binding was calculated as the ratio between the protein-bound radioactivity and the total radioactivity in the plasma.

[6] = Shelf-life of 177Lu-labeled ligands at room temperature (radio-HPLC); format: physicochemical
Description: The shelf-life of each ^177Lu-labeled ligand was monitored at room temperature up to 24 h after radiolabeling.
The shelf-lives of ^177Lu-labeled ligands were assessed at room temperature (RT) in the buffer used for labeling, as described above. For the analysis, 5 μL was withdrawn at desired time points (0, 1, 2, 4, and 24 h) from the stock solution and mixed with 50 μL of the Ca-DTPA solution. 20 μL of this mixture was withdrawn and injected in RP-HPLC.

Ghost-CXCR4 cells = assay: Cellular uptake and distribution in Ghost-CXCR4 cells; format: cell-based, human; conditions: 37 °C, 60 min
Description: Figure 4 In vitro assessment in Ghost-CXCR4 cells at 37 °C. […] Each experiment was performed in triplicate. Results are means ± SD [% of applied activity] from a minimum of two separate experiments. […] Cellular uptake was interrupted at 15, 30, and 60 min by removing the medium and washing twice with ice-cold PBS. The cell surface-bound radioligand was obtained by washing cells twice with ice-cold glycine buffer (pH 2.8) followed by a collection of the internalized fraction after treating the cells with 1 M sodium hydroxide (NaOH). The activity in each fraction was measured in a γ-counter. […] The results were expressed as a percentage of the applied radioactivity after subtracting the nonspecific uptake.

Jurkat xenografts = format: in vivo, mouse; conditions: 1 h p.i., SPECT/CT or PET/CT
Description: The ability of the ^177Lu ligands to target CXCR4 in vivo was assessed by SPECT/CT imaging in Jurkat xenografts. […] 1 h after injection, the remaining amount of radioligand in the body (and vice versa, the washout) was quantified by measuring the total body activity (mouse) in a dose calibrator. The % of the radioligand remaining in the body after 1 h is reported in Figure 6A as % of the remaining activity in reference to the injected activity (100%).
Figure 6 SPECT/CT images as maximum intensity projections (MIPs) of Jurkat tumor-bearing mice at 1 h p.i. of ^177Lu-labeled ligands (200 pmol, ∼15 MBq). […] (B) Same SPECT/CT images of ^177Lu-1, ^177Lu-2, ^177Lu-5, and ^177Lu-6, adapted in a lower scale. T: tumor, L: liver, and K: kidneys. […] TEXT PRINTED IN THE PICTURE: (A) ^177Lu-1: Remaining Activity (% injected): 6 % | (A) ^177Lu-2: Remaining Activity (% injected): 7 % | (A) ^177Lu-5: Remaining Activity (% injected): 7 % | (A) ^177Lu-6: Remaining Activity (% injected): 8 % | (A) ^177Lu-7: Remaining Activity (% injected): 55 % | (A) ^177Lu-9: Remaining Activity (% injected): 94 %
The experimental protocol involving animals was approved by the Veterinary Office (Department of Health) of the Cantonal Basel-Stadt (Approval No. 30515) in accordance with the Swiss regulations for animal treatment. Female athymic nude-Foxn1^nu/Foxn1^+ mice (Envigo, The Netherlands), 4–6 weeks old, were injected subcutaneously with 10^7 Jurkat cells in a 200 μL (1:1) mixture of PBS and Matrigel (CorningMatrigelMembrane matrix, Fischer Scientific, Germany) on the right shoulder. The tumors were allowed to grow for 3–4 weeks before commencement of the experiments.
Nude mice bearing Jurkat xenografts were intravenously injected via the tail vein with ∼15 MBq (200 pmol) of the ^177Lu ligands and 8 MBq (200 pmol) of ^68Ga-7 were euthanized 1 h post injection (p.i.). The radioactivity in the syringe before and after injection was measured followed by measuring the amount of radioactivity remaining in the sacrificed mice. […]

[7] = cited from earlier work; remark: listed apart in the source

## CC[C@H](C)[C@H](N)C(=O)N[C@@H](CC(C)C)C(=O)N[C@@H](CCCNC(=N)N)C(=O)N[C@@H](Cc1c[nH]c2ccccc12)C(=O)N[C@@H](CO)C(=O)N[C@@H](CCCNC(=N)N)C(=O)N[C@@H](CCCCN)C(=O)N[C@@H](CC(C)C)C(=O)N1CCC[C@H]1C(=O)N[C@@H](CS)C(=O)N[C@H](C(=O)N[C@@H](CO)C(=O)O)C(C)C [JM#21, I^1LRWSRK^7LPCVS^12]
[1]
  half-life in human plasma: ~6 min

## CN1C(=O)[C@@H](Cc2ccc(O)cc2)NC(=O)CNC(=O)[C@H](Cc2ccc3ccccc3c2)NC(=O)[C@H](CCCN=C(N)N)NC(=O)[C@H]1CCCNC(=O)c1ccc(CNC(=O)CN2CCN(CC(=O)[O-])CCN(CC(=O)[O-])CCN(CC(=O)[O-])CC2)cc1.[68Ga+3] [^68Ga-Pentixafor, cyclo(D-Tyr^1-D-[NMe]Orn^2(AMBS-(^68Ga-DOTA))-Arg^3-Nal^4-Gly^5)] (cyclo([2Nal]G[dY][dNMeOrn]([4Amb-DOTA])R))
[2]
  activity in the blood: 1.08 ± 0.27 %IA/g
  uptake in the kidneys: 3.06 ± 0.63 %IA/g

## CC[C@H](C)[C@H](N)C(=O)N[C@@H](CC(C)C)C(=O)N[C@@H](CCCNC(=N)N)C(=O)N[C@@H](Cc1c[nH]c2ccccc12)C(=O)N[C@@H](CO)C(=O)N[C@@H](CCCNC(=N)N)C(=O)N[C@@H](CCCCN)C(=O)N[C@@H](CC(C)C)C(=O)N1CCC[C@H]1C(=O)N[C@@H](CO)C(=O)N[C@H](C(=O)N[C@@H](CO)C(=O)N[C@@H](CCCCNC(=O)CN1CCN(CC(=O)O)CCN(CC(=O)O)CCN(CC(=O)O)CC1)C(=O)O)C(C)C [^177Lu-2, metal not drawn] (H-ILRWSRKLPSVSK(DOTA)-OH; N-terminus and C-terminus assumed)
[3]
  logD: -3.23 ± 0.23
[4]
  time to complete degradation in human plasma: 60 min
[5]
  fraction unbound at 60 min: 0.78

## CCCCCCCCCCCCCCCC(=O)N[C@@H](CCC(=O)O)C(=O)NCCCC[C@H](NC(=O)[C@H](CCCNC(=N)N)NC(=O)[C@H](CO)NC(=O)[C@H](Cc1c[nH]c2ccccc12)NC(=O)[C@H](CCCNC(=N)N)NC(=O)[C@H](CC(C)C)NC(=O)[C@H](N)CC(C)C)C(=O)N[C@@H](CCCCNC(=O)CN1CCN(CC(=O)O)CCN(CC(=O)O)CCN(CC(=O)O)CC1)C(N)=O [^177Lu-9, metal not drawn] (H-[dL]LRWSRK([Glu-Palmitoyl])K(DOTA)-NH2; N-terminus assumed)
[6]; 0 h after radiolabeling
  radiochemical purity (%): 96 ± 3%
[6]; 1 h after radiolabeling
  radiochemical purity (%): 96 ± 2%
[6]; 2 h after radiolabeling
  radiochemical purity (%): 94 ± 1%
[6]; 4 h after radiolabeling
  radiochemical purity (%): 93 ± 1%
[3]
  logD: 0.29 ± 0.1
[4]; human, plasma
  metabolic stability in plasma (in words): high metabolic stability in plasma up to 4 h
[5]
  fraction unbound at 60 min: 0.63
Ghost-CXCR4 cells
  cellular uptake (% of the applied activity): 3.25 ± 0.06%
  subcellular distribution (membrane-bound vs internalized): almost entirely internalized
Jurkat xenografts
  visualization of CXCR4-expressing tumor xenograft by imaging: failed to visualize CXCR4-expressing tumors

## CN1C(=O)[C@@H](Cc2ccc(O)c(I)c2)NC(=O)CNC(=O)[C@H](Cc2ccc3ccccc3c2)NC(=O)[C@H](CCCN=C(N)N)NC(=O)[C@H]1CCCNC(=O)c1ccc(CNC(=O)CN2CCN(CC(=O)O)CCN(CC(=O)O)CCN(CC(=O)O)CC2)cc1.[177Lu] [^177Lu-Pentixather, cyclo(3-iodo-D-Tyr^1-D-[NMe]Orn^2(AMBS-(^177Lu-DOTA)-Arg^3-Nal^4-Gly^5)] (cyclo([2Nal]G[dTyr(3-I)][dNMeOrn]([4Amb-DOTA])R))
[7]
  plasma protein binding (PPB): 97%

## LVRYTKKVPQVSTPTL [EPI-X4]
[1]
  half-life in human plasma: 17 min
